From the nanobody polyreactivity screen of Harvey et al. (2022)

Test: yeast display, Sf9 membrane polyspecificity reagent, FACS + sequencing; frameworks hold sequencing errors
How it was run: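 Synthetic nanobody libraries on Saccharomyces cerevisiae BJ5465 were galactose-induced for 36–48 hours, stained 1 hour at 4 °C with 10% biotinylated, detergent-solubilized Sf9 membrane reagent and enriched on streptavidin microbeads. FACS then separated cells into low and high (top ~1%) gates by anti-HA (expression) and streptavidin (reagent binding) fluorescence. Genes were colony-PCR amplified, MiSeq 2 × 250 sequenced and CDR-length filtered. A clone's polyreactivity label is that of its gate of origin.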

Sequence | polyreactivity (PSR sort gate)
QGQLVESGGGLVQAGGCLRLSCAASGGTFDYNAMGWYRQAPGKERELVAAITSGASTYYADSVKGRFTISRDNAKNTVYLQMNSLKPQDTAVYYCAKGPTPGYDYWGQGTQVTVSS | low polyreactivity
QGQLVESGGGLVQAGGRLRLSCAASGSIFRAYAMGWYRQAPGKERELVADISRSGGSTYYADSVKGRFTISRDNAKNTVYLQMNSLKPEDTAVYYCYAPVGWSVEARVSRGYEDQYDYWGQGSQVTVSS | low polyreactivity
QGQLVESGGGLVQAGGRLRLTCAASGSIFAGNAMGWYRQAPGKERELVAAIRWSTGSTYYADSVKGRFTISRDNAKNTVYLQLNSLKPEDTAVYYCAATDTTFYGIVRYEYWGQGTQVTVSS | low polyreactivity
QGQLVESGGGLVQAGGRLSLSCAASGFTFDNYAMGWYSQAPGKERELVAAITSGGSTNYADSVKGRFTISRDNAKNTVYLQMNSLKPEDTAVYYCNVERSIQAQVNAEYYYWGQGTQVSVSS | low polyreactivity
QGQLVESGGGLVQAGGSLRLSCAASGFIFGTYAMGWYRQAPGKERELVAAITGSGGDTYYADSVKGRFTISRDNAKNTVYLQMNSLKPEDTAVYYCAAVRPPTPSRRREDYWGQGTQVTVSS | low polyreactivity
QGQLVESGGGLVQAGGSLRLSCAASGFTFPGYAMGWYRQAPGNVRELVAAITGSGGRTYYADSVKGRFTISRDNAKNTVYLQMNSLKPEDTAVYYCLARSSYNWYDYWGQGTQVTVSS | high polyreactivity
QGQLVESGGGLVQAGGSLRLSCAASGIIFILYTMGWYRQAPGKEREFVATISSGGGSTFYADSVKGRFTISRDNAKNTVYLQMNSLKPEDTAVYYCAAEQLYYCERYYIWGYYYWGQGTQVTVSS | low polyreactivity
QGQLVESGGGLVQAGGSLRLSCAASGLTFGSYTMGWYRQAPGKERELVAAITSDGSTNYADSVKGRFTISRDNAKNTVYLQMNSLKPEDTAVYYCAATRVSYRQFKAIGYHYWGQGTQVTVSS | high polyreactivity
QGQLVESGGGLVQAGGSLRLSCAASGRIFAGNAMGWYRQAPGKDRELVAAISKSGRSTYYADSVKGRFTISRDNAKNTVYLQMNSLKPEDTAVYYCAKLYYPVSDQYDYYYWGQGTQVTVSS | low polyreactivity
QGQLVESGGGLVQAGGSLRLSCAASGRTFTDYAMGWYRQAPGKEWELVADISGSGGSTYYADSVKGRFTISRDNAKNTVYLQMNSLNPEDTAVYYCNAVGSRRDKFDYWGQGTQVTVSS | low polyreactivity
QGQLVESGGGLVQAGGSLRLSCAASGSIFFGNAMGWYRQAPGKERELVAGITGGGSTYYADSVKGRFTISRDNAKNTVYLQMNSLKPEDTAVYYCNKKAYRKTGMDYWGQGTQVTVSS | low polyreactivity
QGQLVESGGGLVQAGGSLRLSCAASGSIFIGNAMGWYRQAPGKERELVAAITGRGGRTYYADSVKGRFSISRDNAKNTVYLQMNSLKPVDTAVYDCNARSGSSYSGYYYWGQGTQVTVSS | high polyreactivity
QGQLVESGGGLVQAGGSLRLSCAASGSIFRPYPMGWYRQAPGKERELVATISSTGITNYADSVKGRFTISRDNAKNTVYLQMNSLKPEDTADYYCSAGLWYSYDYWGQGTQVTVSS | high polyreactivity
QGQLVESGGGLVQAGGSLRLSCAASGSIFWYYAMGGYRQAPGKERELVADITSTGGSTYYADSVKGRFTISRDNAKNTVYLQMNSLKPEDTAVYYCAGEASYHGYYSLGYWGQGTQVTVSS | high polyreactivity
QGQLVESGGGLVQAGGSLRLSCAASGSTFDYYVMGWYRQAPRKERELVAAISSGDSTNYADSVKGRFTISRDNAKNTVYLQMNSLKPEDTAVSYCAAEYTVHYDYWGQGTQVTVSS | low polyreactivity
QGQLVESGGGLVQAGGSLRLSCAASGSTFLHYAMGWYRQAPGKERELVAAISRRGGRTYYADSVKGRFTISRDNAKNTVYLQMNRLKPEDTAVYNCAVDGIRDGYWIFYYWGQGTQVTVSS | low polyreactivity
QGQLVESGGGLVQAGGSLRLSCAASGSTFTYNAMGWYRQAPGKERELVASISSGTTTYYADSVKGRFTISRDNAKNTVYLQMNSLKPEDTAVYYCAVDSWSRVQGWLAHNYDYWGQGTQVTVSS | low polyreactivity
QGQLVESGGGLVQAGGSLRLSCAATGFTFRYYAMGWYRHAPGKERELVATITRGGSTNYADSVKGRFTISRDNAKNTVYLQMNSLKPEDTAVYYCATGKNYWRGYEYWGQGTQVTVSS | low polyreactivity
QGQLVESGGGLVQAGGSLRLSCAAYGSTFYLYPMGRYRQAPGKERELVASISLSGRSTYYADSVKGRFTISRDNAKNTVYLQMNRLKQEDTAVYYCAARRFAYYFQYLGGGYWGQGTQVTVSS | high polyreactivity
QGQLVESGGGLVQAGGSLRLSCAPSGSTVWVNVMGCYSPARGKERELVAAIDSGGSTYYADSVKGRFTISRDKAKNTVYLQMISLKPEDTAVYYCNARVDTPSPYDYWGQGTQVTVSS | low polyreactivity
QGQLVESGGGLVQAGGSLRLSSAASGSTFVYAMGWYRQAPGKERVLVASISWSDSSTYYADSVKGRFTISRDNAKNTVYLQMNSQKREDTAVYYGYADQGTRDSDYWGQGTQGTVSS | low polyreactivity
QGQLVESGGGLVQAGGSRRLSCAASGFIYFNAMGWSRQAPGKEREMVASISYSGGSTYYADSVKGRFTISRDNAKNTVYLQMNSLKPEDTAVYYCAKAFIEPGYKYDSWGQGTQVTVSS | high polyreactivity

Sequence | polyreactivity (PSR sort gate)
QGQLVESGGGLVQEGGILHLTCAASGRIFCYYDMGWSRQEPGKERELVAAISRSGGSTYYADSVKGRFTISRDNAKNTVYLQMNSLKPEDTAVYYCAAEYYGFSWAGYYYWGQGTQVTVSS | high polyreactivity
QGQLVESWGGLVQAGGSLRLSCAASGSTFCDYAMGWYRQAPGQERELVAAIDWSDGSTYYADSVKGRFTSSRDNAKNTGYLQMNSLKPEDTAVYYCAAEQWYGMYYWGQGTQVTVSS | high polyreactivity
QGQLVETGGGLVQAGGSLRLSCAASGSTFSYYAMGWYRQAPGKEREWVAAISRRGGSTYYADSVKGRFTISRDNAKNTVYLQMISLKPEDTAVNYCAADDYYSSRIEYYNWGQGTQVTVSS | high polyreactivity
QGQRVESGGGLGQAGGSLRISCAASGLTFHRYAMGWYRQAQGKETELVAAINYSGGRTYYADSVKGRFTISRDNAKYTVYFQMNSLKPEDTAVYYCNVARWGNIPVGEYDYWGQGTQVTVSS | high polyreactivity
QGQRVESGGGLVQAGGSLLLSCAASGLTFAKYAMGWDRQAPGKERELVSTITWSGATTYYADSVKGRFTISRDYAKNTVYLQMNSLKPEDTAVYYCIADLPVYVDYIIGGYGYWGQGTQVTVSS | low polyreactivity
QGQRVESGGGLVQAGGSLRLSCAASGFIFWDYDMVWYRQAPGKEREMVAAISDSGGDTYYADSVKGRFTISRDNSKNTVYLQMHSLKREDTAVIYCAADVELWVFRGQQFDYWGQGTQVTVSS | low polyreactivity
QGQRVESGGGLVQAGGSLRLSCAASGLIFSRYGMGWYRPARGKDRELVAAISGGGGSTYYADSVKGRFTISRDNAKNTVYLEMNSLKPEDTAVYYCARKYTRKIPASDYWGQGTQVTVSS | high polyreactivity
QGQRVESGGVLVQAGGSLRLRCAASGSTFSRYDMGWYRQAPGKERELVATITRAGRTYYADSVKGRFTISRDNAKNTVYLQMNSLIPEDTAVYYCAAELYYWTYVRFDYWGQGTQVTVSS | low polyreactivity
QHQLEESGGGLVQAGGSLRLSFAAYGFIFGRYTMGWYRQAPVKERELVAAISSRGGSTYYADSVKGGFTISRDYAKYTVYLQMNSLNPEDTAVYSCNALRRPSSEGRDYWGQGTQVTVSS | high polyreactivity
QHQLVESGAALVQAGGSLLVICAASVFTFPFYTMGWYRQAPGKEMELVAAISTSGAGTYYAESVKGRFTISRDNAKNTVYLQMNSLKTEDTAVYYCAAYKRGRREMDYWGQGTQVTVSS | high polyreactivity
QHQLVESGGGLFQAGGSLRLSCAPSGSIIVWNAMGWYRQAPGKERELVASMTSGASTYYADSGKGRVTISRDNAKNTVYLQMNSLKPEDTAVYYCAAYYGYTDGWYLYSGYNYWGQGTQVTVSS | low polyreactivity
QLHLVESGGGLVQAGGSLRLSCAASGRIFFYAMGWYRQAPGKERDLVASITTSGTSTYYADSVKGRFTISRDNSKNTVYLEMNSLKPEDTSVYYCNATSNSIRWYDFYYWGQGTQVTVSS | low polyreactivity
QLQHVESGGCLVQAGASLRLSCAASRLIFFYYAMGWSRQAPGKERELVAAIRTNYADSVKGRITSSRDNAKNTVYLQMNSQKPEDTAVYYCAAESSQSPTSAFDYWGQGTQVTVSA | low polyreactivity
QLQHVESGGGLVQAGGSLRLSCADSGFILYLNAMGWYRQAPGKERELVATITNRGGSTYYADTVKGRFTISRDNAKNTVYLQMNSLKPEDTAVYYCAARTRERYSKPYFYRRFGYWGQGTQVTVSS | low polyreactivity
QLQHVESGGGLVQAGGSLRLTCAASGYTYHGYAMGWYRQAPGKERELVAVITQRGGSTSYADSVKGSFTISRDYAKNNVNLQMKSLKPVDTAVYYCNDSAWLVVARTRYGYWGQGTQVTVSS | low polyreactivity
QLQLEESGGGLVQAGGTLRISCEASGSTFRPYAMGAYRKAPGQEREMVARITGSGDSTYYADSVKGRFTISRDNAQNTVYLQMNSLKPEDNAVYYCARDFDYSLSGFEYWGQGTQVTVSS | low polyreactivity
QLQLLESDGGLVQAGVSLRLSCATSAMTISRYTMGWYRQAPGKARELVAVITYRGGSTYYADSVKGRFTISRDNAKNTVYLQMNSLKPEDTAVYYCAAGRRTYGLTYDYWGQGTQVTVSS | high polyreactivity
QLQLQESGGGLVQAGGSLRLSCAASAFIFARNYMGWYRQAPGKERELVAGIGVGASTNYADSVKGRFTISRDNAKNTVYLQMNSLEPEDTAVYYCAVGDTVLGYHYYWGQGTQVTVSN | low polyreactivity
QLQLQESVGGLVQAGGSLRLSCAAIGNIFPTDRMGWYSQSPGKELEFVATISHGGSTNNADSVKGRFTISRDNGKNTVYLKMNSLKPEVTAVYYCAVWSLGRWRNYYWGQGSQVTVSS | low polyreactivity
QLQLVDSGGGLVQAGGSLRLSCAATGFTFYYYVMGWYRQAPGKETELVAAISSRGGSTYYADSVKGRFTISRDNAKNTVYLQMNSLKPEDTAVYYCAATYWPYRPGYYYWGQGTQVTVSS | high polyreactivity
QLQLVESGAGLVQAGGSLRLSCAASGRIFAYNTMGRYRQAHGKERELVAVITSGGSTNYADYVKGRFTISRDNAKNTVYLQMNSLKPEDTAVYYCAKRPYGGSGGYRYDYWGQGTQVTVSS | high polyreactivity
